Assay results as given in patent publication US20240043507A1.

The substances below were run against SARS-CoV-2 spike receptor binding domain (native RBD) (SARS-CoV-2) (UniProt P0DTC2) (assay: not given).

AZD1061 (antibody) and AZD8895 (antibody) are within 1.5-fold of each other in Kd: 1.04 nM for the first, 1.49 nM for the second.

Compared with REGN10933 (antibody), REGN10987 (antibody) is 2.1-fold higher in Kd: 1.82 nM for the first, 3.85 nM for the second. The first binds more tightly here.

These substances were tested against SARS-CoV-2 receptor binding domain, native (501N) (SARS-CoV-2) (UniProt P0DTC2) (assay: BLI, RBD immobilised on AR2G biosensor, 1:1 fit).

“AZD1061 as tested by BLI (Fab by the footnote of Table 12)” and “AZD8895 as tested by BLI (Fab by the footnote of Table 12)” are within 1.5-fold of each other in Kd: 1.04 nM for the first, 1.49 nM for the second.

Compared with “REGN10933 as tested by BLI (Fab by the footnote of Table 12)”, “REGN10987 as tested by BLI (Fab by the footnote of Table 12)” is 2.1-fold higher in Kd: 1.82 nM for the first, 3.85 nM for the second. The first binds more tightly here.
